According to the DeepSol protein solubility set:

Assay: soluble on expression in E. coli; label from the status in PepcDB or PDB records

Row | Sequence | soluble on expression in E. coli
1 | MTYAVEFDNVSRLYGDVRAVDGVSIAIKDGEFFSMLGPSGSGKTTCLRLIAGFEQLSGGAISIFGKPASNLPPWERDVNTVFQDYALFPHMSILDNVAYGLMVKGVNKKQRHAMAQEALEKVALGFVHQRKPSQLSGGQRQRVAIARALVNEPRVLLLDEPLGALDLKLREQMQLELKKLQQSLGITFIFVTHDQGEALSMSDRVAVFNNGRIEQVDSPRDLYMRPRTPFVAGFVGTSNVFDGLMAEKLCGMTGSFALRPEHIRLNTPGELQANGTIQAVQYQGAATRFELKLNGGEKLLVSQANMTGEELPATLTPGQQVMVSWSRDVMVPLVEER | not soluble
2 | MSSSTKTLSQTYGPRPQSFSLDEAGERYYIGSEIGAYLRLHRGTLYKKYPLLWRKVATSDDKDKLKQIAMSNAFLHTNIMLLRAHEVDELLDGSEEKYRAAGAAPSTPRTEGASRTVAKTPATGWAGQQVTSGSHHLESVPCSCPIAHSRGRMKHRELVYSAEDLEMSKRVMKNAEEGEDLVPIRLDMELDGIKLRDTFTFNKNEKMITPEMIAEIMCEDLDLPLAVFQPAITAAINQQLEASTEAPPLDVNICDQRAVLKLNINVGNQSLVDQFEWDMSDPNNSPEEFSRNICKELGLGGEFMSGIAYSIRGQLQWNQRTYAFSESPLATVDCPFRTSSEVESWGPFLETLTDAEIEKKMRDQDRNTRRMRRLVGGGFNY | not soluble
3 | SKRRRCKGKNMTKNLLVELGLEELPAYVVTPSEKQLGEKMAAFLGENRLSYESIQTFSTPRRLAVRVLGLADQQTDLTEDFKGPSKKIALDADGNFSKAAQGFVRGKGLTVDDIEFREVKGEEYVYVTKHEAGKSAKEVLAGIPEVLASLTFPVSMHWANNSFEYIRPVHTLIVLLGDEALELDFLGIKSGRVSRGHRFLGHEVEITNADSYEEDLRTVYVIANSKERENMIREQIKAIEAEQGVQVQIEEGLLNEVLNLVEYPTTFMGGFDTKYLDVPEDVLVTSMETHQRYFVVRDLDGRLKPNFISVRNGNAEHLENVVRGNEKVLVARLEDGEFFWREDQKLKIEDLVAKLANVTFHEKIGSLSEHMARAGVIAASLAEKAGLTAEEKAAVARAAEIYKFDLLTGMVGEFDELQGIMGEKYALLAGEDEAVATAIREHYLPDSADGALPETKVGAILALADKLDTLLSFFSVGLIPSGSNDPYALRRATQGIVRILDAFGWHIPMDELIDSLYGLSFDSLSYDNQAEVIRFIKARVDKMMGSTPKDIKEAVLSGSNFV | not soluble
4 | MGSDKIHHHHHHMGGIWMSSAKTLEEVISKISGVISAKVIEEDGQPREIHVIADPSRNPKQIVRDIETVALASLGMKIDRRIISVAQLSQGRFPSSQTYEITSIEVKNLDRKKQVKVTIHNPLEDEDMVGESAGPGTSTNLPRLVGEAVIEAFNPDCPVSVDDVQKVFLAGREFVLVHLTIQDEDRERTEVGVAPLEGDFLKSVATATLKVVKDLT | not soluble
5 | NNESSLIEQAPIPQDGLTVAPHRAQREAVHIEKIMLKGVQRKRADKYWEYTFKVNWSDLSVTTVTKTHQELQEFLLKLPKELSSETFDKTILRALNQGSLKREERRHPDLEPILRQLFSSSSQAFLQSQKVHSFFQSISSDSLHSINNLQSSLKTSKILEHLKEDSSEASSQEEDVLQHAIIHKKHTGKSPIVNNIGTSCSPLDGLTMQYSEQNGIVDWRKQSCTTIQHPEHCVTSADQHSAEKRSLSSINKKKGKPQTEKEKIKKTDNRLNSRINGIRLSTPQHAHGGTVKDVNLDIGSGHDTCGETSSESYSSPSSPRHDGRESFESEEEKDRDTDSNSEDSGNPSTTRFTGYGSVNQTVTVKPPVQIASLGNENGNLLEDPLNSPKYQHISFMPTLHCVMHNGAQKSEVVVPAPKPADGKTIGMLVPSPVAISAIRESANSTPVGILGPTACTGESEKHLELLASPLPIPSTFLPHSSTPALHLTVQRLKLPPPQGSSESCTVNIPQQPPGSLSIASPNTAFIPIHNPGSFPGSPVATTDPITKSASQVVGLNQMVPQIEGNTGTVPQPTNVKVVLPAAGLSAAQPPASYPLPGSPLAAGVLPSQNSSVLSTAATSPQPASAGISQAQATVPPAVPTHTPGPAPSPSPALTHSTAQSDSTSYISAVGNTNANGTVVPPQQMGSGPCGSCGRRCSCGTNGNLQLNSYYYPNPMPGPMYRVPSFFTLPSICNGSYLNQAHQSNGNQLPFFLPQTPYANGLVHDPVMGSQANYGMQQMAGFGRFYPVYPAPNVVANTSGSGPKKNGNVSCYNCGVSGHYAQDCKQSSMEANQQGTYRLRYAPPLPPSNDTLDSAD | soluble
